First the molecules themselves.
B1: anti-idiotypic antibody 8A3 (antibody, V domains shown)
VH: QVQLQQSGAELAKPGASVKMSCKASGYNFTTYWMHWVKQRPGQGLEWIGYINPSTDYTEYNQKFKYKATLTADKSSSTAYIQLSSLTSEDSAVYYCARWWDYDWYFDVWGAGTPLTVSS
VL: DIVMTQSQEFMSTSVGDRVSVTCKASQTVDTNVAWYQQKLGQSPKPLIYSASYRCSGVPDRFTGSGSRTDFTLTITNVQSEDLAEYFCQQYHSFPWTFGGGTKVEIKR
notes: Murine monoclonal antibody raised against 2H7.v16; It was biotinylated when used as detection antibody and unlabeled when coated; also called MAb 8A3; 8A3-bio
B2: humanized 2H7 variant v511 (antibody, human IgG1, kappa, V domains shown)
VH: EVQLVESGGGLVQPGGSLRLSCAASGYTFTSYNMHWVRQAPGKGLEWVGAIYPGNGATSYNQKFKGRFTISVDKSKNTLYLQMNSLRAEDTAVYYCARVVYYSYRYWYFDVWGQGTLVTVSS
VL: DIQMTQSPSSLSASVGDRVTITCRASSSVSYLHWYQQKPGKAPKPLIYAPSNLASGVPSRFSGSGSGTDFTLTISSLQPEDFATYYCQQWAFNPPTFGQGTKVEIKR
notes: also called 2H7.v511
B3: humanized anti-CD20 antibody 2H7.v16 (antibody, human IgG1, kappa)
heavy: not shown
light: DIQMTQSPSSLSASVGDRVTITCRASSSVSYMHWYQQKPGKAPKPLIYAPSNLASGVPSRFSGSGSGTDFTLTISSLQPEDFATYYCQQWSFNPPTFGQGTKVEIKRTVAAPSVFIFPPSDEQLKSGTASVVCLLNNFYPREAKVQWKVDNALQSGNSQESVTEQDSKDSTYSLSSTLTLSKADYEKHKVYACEVTHQGLSSPVTKSFNRGEC
notes: Human IgG1, expressed in 293 cells; also called humanized anti-CD20 IgG; humanized 2H7

The target of test [1] is T1, humanized anti-CD20 antibody 2H7.v31.
T1 construct: The L chain is the same as for 2H7.v16
Description: ELISA, 8A3 coated on plate, anti-human IgG Fc-HRP detection. On the technique in general: In an ELISA, binding on a coated surface is turned into a signal by an enzyme label.

Test [2] addresses B3. The description is as above.
The target of test [3] is B2. Description: sandwich ELISA, 8C5 coat, biotinylated 8A3 detection, mouse serum.
The target of test [4] is B1. Description: sandwich ELISA in mouse serum, 8C5 coat + 2H7 + 8A3-bio; the signal needs binding to both 8C5 and 8A3.
Test [5] deals with B1. Description: ELISA, plate coated with 8A3, serially diluted antibody, detection with goat anti-human IgG Fc-HRP.

These results are taken from US20070015228A1 (Genentech, published 2007).

As for B1, the binding result in test [1], in test [2] and in test [3] was “binds” each time.

For B2, in test [4], the binding result is given as “binds”.

With B3, the binding result in test [5] is on record as “binds”.
